The text below walks through data of paper PMC2643475.

In experiment [1] the target is α5β1-integrin (human (endogenous in T-HEp3)) (UniProt P05556).
Experiment [2] shares this target. The source holds these as a separate data set.
For experiment [3] the target is unchanged. The source holds these as a separate data set.
Experiment [4] shares this target. The experiment can be described thus: co-IP; as a1, with 2.5 µM compound MS#479 added for the last 15 min of the IP.

UniProt P05556, sequence (P05556 whole entry, looked up): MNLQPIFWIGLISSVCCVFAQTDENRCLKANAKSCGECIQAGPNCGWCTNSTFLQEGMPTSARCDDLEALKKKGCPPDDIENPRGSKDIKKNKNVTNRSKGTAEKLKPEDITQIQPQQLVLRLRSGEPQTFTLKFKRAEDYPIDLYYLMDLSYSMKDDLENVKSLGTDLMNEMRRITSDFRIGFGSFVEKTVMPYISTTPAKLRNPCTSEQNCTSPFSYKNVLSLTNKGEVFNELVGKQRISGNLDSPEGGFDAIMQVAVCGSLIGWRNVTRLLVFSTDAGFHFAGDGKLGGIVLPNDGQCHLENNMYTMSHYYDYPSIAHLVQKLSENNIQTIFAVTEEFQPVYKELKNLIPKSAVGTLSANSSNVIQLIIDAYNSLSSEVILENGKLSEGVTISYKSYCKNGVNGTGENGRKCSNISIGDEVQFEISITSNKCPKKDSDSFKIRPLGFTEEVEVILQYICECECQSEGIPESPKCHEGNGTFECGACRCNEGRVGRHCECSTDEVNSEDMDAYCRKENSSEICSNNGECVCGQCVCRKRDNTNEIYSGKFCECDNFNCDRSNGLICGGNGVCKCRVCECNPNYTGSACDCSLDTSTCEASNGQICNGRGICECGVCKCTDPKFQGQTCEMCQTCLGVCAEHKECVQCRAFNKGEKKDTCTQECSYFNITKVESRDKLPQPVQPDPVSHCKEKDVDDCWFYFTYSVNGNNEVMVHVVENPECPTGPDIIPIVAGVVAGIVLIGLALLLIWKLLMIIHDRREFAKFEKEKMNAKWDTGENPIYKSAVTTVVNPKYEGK

In experiment [1], “urokinase receptor (uPAR) (from UniProt Q03405 23-305)” yielded an Elk1-GAL4 luciferase reporter of ERK activity in T-HEp3 cells treated for 16 hrs with 5 µM MS#479; inhibition against untreated control of more than 60%. In experiment [2], this substance returned a binding of HUTS-4 antibody (active conformation of β1 integrin) to T-HEp3 cells by FACS with 5 and 50 µM MS#479 or MS#305 of 15%. Besides, the luciferase activity (ERK reporter, units per mg of tumor protein) in T-HEp3 tumors on chick embryo CAMs treated daily with 10 µM MS#479; inhibition against diluent in experiment [3] came out at 85%. The same substance gave a percent reduction of the uPAR/integrin association with 2.5 µM MS#479 in experiment [4] of more than 70%.
